Patent publication US20210246166A1 (Bayer, published 2021)
Bridge positions count the residues as written; N and C are the ends. Square brackets hold non-standard residues; d marks the D form. Ends that are not written are not given here. Oic = O=C(O)[C@@H]1C[C@@H]2CCCC[C@@H]2N1; Phe(2-Br) = N[C@@H](Cc1ccccc1Br)C(=O)O; tBuAla = CC(C)(C)C[C@H](N)C(=O)O; Pen = CC(C)(S)[C@H](N)C(=O)O; NMeC = CN[C@@H](CS)C(=O)O; NMeA = CN[C@@H](C)C(=O)O; Sar = CNCC(=O)O

T1: recombinant human MASP1 active protease (amino acids 297-699, C-terminal His Tag) (human, UniProt P48740 297-699)
T1 sequence: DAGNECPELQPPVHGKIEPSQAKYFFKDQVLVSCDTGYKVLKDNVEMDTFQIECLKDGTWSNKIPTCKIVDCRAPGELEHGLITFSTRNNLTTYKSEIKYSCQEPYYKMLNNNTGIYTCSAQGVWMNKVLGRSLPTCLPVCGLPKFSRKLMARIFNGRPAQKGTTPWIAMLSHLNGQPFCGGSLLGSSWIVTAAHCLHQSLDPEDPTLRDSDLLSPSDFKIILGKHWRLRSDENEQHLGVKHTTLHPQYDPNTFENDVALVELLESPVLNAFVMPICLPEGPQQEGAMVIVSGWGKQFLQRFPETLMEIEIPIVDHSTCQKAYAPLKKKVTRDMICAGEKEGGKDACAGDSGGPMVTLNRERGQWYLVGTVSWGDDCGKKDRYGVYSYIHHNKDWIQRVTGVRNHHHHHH

B1: ((N-Me)A)-IC+SRSLP-(Oic)-I-(Pen)+IP-OH (peptide)
peptide: [NMeA]ICSRSLP[Oic]I[Pen]IP-OH
modifications: disulfide 3-11; N-terminus assumed
SMILES: CC[C@H](C)[C@H](NC(=O)[C@H](C)NC)C(=O)N[C@H]1CSSC(C)(C)[C@@H](C(=O)N[C@H](C(=O)N2CCC[C@H]2C(=O)O)[C@@H](C)CC)NC(=O)[C@H]([C@@H](C)CC)NC(=O)[C@@H]2C[C@@H]3CCCC[C@@H]3N2C(=O)[C@@H]2CCCN2C(=O)[C@H](CC(C)C)NC(=O)[C@H](CO)NC(=O)[C@H](CCCNC(=N)N)NC(=O)[C@H](CO)NC1=O
B2: ((N-Me)G)-IC+SRSLP-(Oic)-I-(Pen)+IP-(PEG4-CH2CO2H (15 atoms))-NH2 (peptide)
peptide: [Sar]ICSRSLP[Oic]I[Pen]IP[PEG4‑CH2CO2H (15 atoms)]-NH2
modifications: disulfide 3-11
B3: AIC+SRSLP-(rel-(1R,3R,5R,6R)-6-(Trifluoromethyl)-2-azabicyclo[3.1.0]hexane-3-carboxylic acid)-IC+IPD-NH2 (peptide)
peptide: AICSRSLP[rel‑(1R,3R,5R,6R)‑6‑(Trifluoromethyl)‑2‑azabicyclo(3.1.0)hexane‑3‑carboxylic acid]ICIPD-NH2
modifications: disulfide 3-11
B4: AIC+SRS-((2-Bromo)F)-PPI-(Pen)+IPD-NH2 (peptide)
peptide: AICSRS[Phe(2-Br)]PPI[Pen]IPD-NH2
modifications: disulfide 3-11; N-terminus assumed
SMILES: CC[C@H](C)[C@H](NC(=O)[C@H](C)N)C(=O)N[C@H]1CSSC(C)(C)[C@@H](C(=O)N[C@H](C(=O)N2CCC[C@H]2C(=O)N[C@@H](CC(=O)O)C(N)=O)[C@@H](C)CC)NC(=O)[C@H]([C@@H](C)CC)NC(=O)[C@@H]2CCCN2C(=O)[C@@H]2CCCN2C(=O)[C@H](Cc2ccccc2Br)NC(=O)[C@H](CO)NC(=O)[C@H](CCCNC(=N)N)NC(=O)[C@H](CO)NC1=O
B5: AIC+SRS-((tBu)A)-PP-((2S)-2-(Amino)-2-[(1S,3R)-3-hydroxycyclohexyl]acetic acid)-((N-Me)C)+IPD-NH2 (peptide)
peptide: AICSRS[tBuAla]PP[(2S)‑2‑(Amino)‑2‑((1S,3R)-3-hydroxycyclohexyl)acetic acid][NMeC]IPD-NH2
modifications: disulfide 3-11
B6: AIC+SRSLP-(Oic)-I-(Pen)+IP-OH (peptide)
peptide: AICSRSLP[Oic]I[Pen]IP-OH
modifications: disulfide 3-11; N-terminus assumed
SMILES: CC[C@H](C)[C@H](NC(=O)[C@H](C)N)C(=O)N[C@H]1CSSC(C)(C)[C@@H](C(=O)N[C@H](C(=O)N2CCC[C@H]2C(=O)O)[C@@H](C)CC)NC(=O)[C@H]([C@@H](C)CC)NC(=O)[C@@H]2C[C@@H]3CCCC[C@@H]3N2C(=O)[C@@H]2CCCN2C(=O)[C@H](CC(C)C)NC(=O)[C@H](CO)NC(=O)[C@H](CCCNC(=N)N)NC(=O)[C@H](CO)NC1=O
B7: ((N-Me)G)-IC+SRSLP-(Oic)-I-(Pen)+IP-NH2 (peptide)
peptide: [Sar]ICSRSLP[Oic]I[Pen]IP-NH2
modifications: disulfide 3-11; also: TFA salt
B8: AIC+SRS-((tBu)A)-P-(Oic)-I-(Pen)+IPD-NH2 (peptide)
peptide: AICSRS[tBuAla]P[Oic]I[Pen]IPD-NH2
modifications: disulfide 3-11; N-terminus assumed
SMILES: CC[C@H](C)[C@H](NC(=O)[C@H](C)N)C(=O)N[C@H]1CSSC(C)(C)[C@@H](C(=O)N[C@H](C(=O)N2CCC[C@H]2C(=O)N[C@@H](CC(=O)O)C(N)=O)[C@@H](C)CC)NC(=O)[C@H]([C@@H](C)CC)NC(=O)[C@@H]2C[C@@H]3CCCC[C@@H]3N2C(=O)[C@@H]2CCCN2C(=O)[C@H](CC(C)(C)C)NC(=O)[C@H](CO)NC(=O)[C@H](CCCNC(=N)N)NC(=O)[C@H](CO)NC1=O
B9: AIC+SRSLP-(Oic)-I-(Pen)+IPE-OH (peptide)
peptide: AICSRSLP[Oic]I[Pen]IPE-OH
modifications: disulfide 3-11; N-terminus assumed
SMILES: CC[C@H](C)[C@H](NC(=O)[C@H](C)N)C(=O)N[C@H]1CSSC(C)(C)[C@@H](C(=O)N[C@H](C(=O)N2CCC[C@H]2C(=O)N[C@@H](CCC(=O)O)C(=O)O)[C@@H](C)CC)NC(=O)[C@H]([C@@H](C)CC)NC(=O)[C@@H]2C[C@@H]3CCCC[C@@H]3N2C(=O)[C@@H]2CCCN2C(=O)[C@H](CC(C)C)NC(=O)[C@H](CO)NC(=O)[C@H](CCCNC(=N)N)NC(=O)[C@H](CO)NC1=O
B10: PIC+SRS-((tBu)A)-PPI-(Pen)+IPD-NH2 (peptide)
peptide: PICSRS[tBuAla]PPI[Pen]IPD-NH2
modifications: disulfide 3-11; N-terminus assumed
SMILES: CC[C@H](C)[C@H](NC(=O)[C@@H]1CCCN1)C(=O)N[C@H]1CSSC(C)(C)[C@@H](C(=O)N[C@H](C(=O)N2CCC[C@H]2C(=O)N[C@@H](CC(=O)O)C(N)=O)[C@@H](C)CC)NC(=O)[C@H]([C@@H](C)CC)NC(=O)[C@@H]2CCCN2C(=O)[C@@H]2CCCN2C(=O)[C@H](CC(C)(C)C)NC(=O)[C@H](CO)NC(=O)[C@H](CCCNC(=N)N)NC(=O)[C@H](CO)NC1=O
B11: ((N-Me)A)-IC+SRSLP-(Oic)-I-(Pen)+IPD-NH2 (peptide)
peptide: [NMeA]ICSRSLP[Oic]I[Pen]IPD-NH2
modifications: disulfide 3-11; N-terminus assumed
SMILES: CC[C@H](C)[C@H](NC(=O)[C@H](C)NC)C(=O)N[C@H]1CSSC(C)(C)[C@@H](C(=O)N[C@H](C(=O)N2CCC[C@H]2C(=O)N[C@@H](CC(=O)O)C(N)=O)[C@@H](C)CC)NC(=O)[C@H]([C@@H](C)CC)NC(=O)[C@@H]2C[C@@H]3CCCC[C@@H]3N2C(=O)[C@@H]2CCCN2C(=O)[C@H](CC(C)C)NC(=O)[C@H](CO)NC(=O)[C@H](CCCNC(=N)N)NC(=O)[C@H](CO)NC1=O
B12: SIC+SRS-((tBu)A)-PPI-((N-Me)C)+I-NH2 (peptide)
peptide: SICSRS[tBuAla]PPI[NMeC]I-NH2
modifications: disulfide 3-11; N-terminus assumed
SMILES: CC[C@H](C)[C@H](NC(=O)[C@@H]1CSSC[C@H](NC(=O)[C@@H](NC(=O)[C@@H](N)CO)[C@@H](C)CC)C(=O)N[C@@H](CO)C(=O)N[C@@H](CCCNC(=N)N)C(=O)N[C@@H](CO)C(=O)N[C@@H](CC(C)(C)C)C(=O)N2CCC[C@H]2C(=O)N2CCC[C@H]2C(=O)N[C@@H]([C@@H](C)CC)C(=O)N1C)C(N)=O
B13: AIC+SRSLP-(Oic)-I-(Pen)+IPE-NH2 (peptide)
peptide: AICSRSLP[Oic]I[Pen]IPE-NH2
modifications: disulfide 3-11; N-terminus assumed
SMILES: CC[C@H](C)[C@H](NC(=O)[C@H](C)N)C(=O)N[C@H]1CSSC(C)(C)[C@@H](C(=O)N[C@H](C(=O)N2CCC[C@H]2C(=O)N[C@@H](CCC(=O)O)C(N)=O)[C@@H](C)CC)NC(=O)[C@H]([C@@H](C)CC)NC(=O)[C@@H]2C[C@@H]3CCCC[C@@H]3N2C(=O)[C@@H]2CCCN2C(=O)[C@H](CC(C)C)NC(=O)[C@H](CO)NC(=O)[C@H](CCCNC(=N)N)NC(=O)[C@H](CO)NC1=O

These binders were tested against recombinant human MASP2 active protease (amino acids 297-686, C-terminal His Tag) (human, UniProt O00187 297-686) (assay: cell-based or functional assay).
recombinant human MASP2 active protease (amino acids 297-686, C-terminal His Tag), sequence (O00187 other isoform, or with tags, fused parts or gaps limits assumed): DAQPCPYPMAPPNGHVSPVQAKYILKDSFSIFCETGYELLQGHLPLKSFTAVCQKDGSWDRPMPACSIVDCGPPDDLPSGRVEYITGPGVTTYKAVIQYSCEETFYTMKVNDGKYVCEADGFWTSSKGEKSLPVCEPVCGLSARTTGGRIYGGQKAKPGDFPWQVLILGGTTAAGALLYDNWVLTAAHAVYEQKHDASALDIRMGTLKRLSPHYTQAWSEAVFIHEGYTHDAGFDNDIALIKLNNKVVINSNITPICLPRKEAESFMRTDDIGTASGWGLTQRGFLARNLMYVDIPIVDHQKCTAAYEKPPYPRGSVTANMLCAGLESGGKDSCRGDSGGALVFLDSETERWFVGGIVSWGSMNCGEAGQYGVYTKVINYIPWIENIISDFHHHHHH
For B1, the “human MASP2 IC50” value was 0.2 µM.
For B2, the “human MASP2 IC50” value was 0.089 µM.
For B3, the “human MASP2 IC50” value was 2.8 µM.
In the case of B4, the “human MASP2 IC50” value is reported as 0.048 µM.
For B5, the “human MASP2 IC50” value was 0.33 µM.
In the case of B6, the “human MASP2 IC50” value is reported as 0.16 µM.
With B7 the “human MASP2 IC50” value was 0.0696 µM.
In the case of B8, the “human MASP2 IC50” value is reported as 0.13 µM.
With B9 the “human MASP2 IC50” value was 0.13 µM.
B10 was tested, and the “human MASP2 IC50” value was 0.05 µM.
B11 was tested, and the “human MASP2 IC50” value was 0.145 µM.
In the case of B12, the “human MASP2 IC50” value is reported as 0.23 µM.
In the case of B13, the “human MASP2 IC50” value is reported as 0.15 µM.

What follows are binders tested against T1, recombinant human MASP1 active protease … (assay: cell-based or functional assay).
In the case of B1, the “human MASP1 IC50” value is reported as 0.0029 µM.
B2 was tested, and the “human MASP1 IC50” value was 0.0029 µM.
B3 was tested, and the “human MASP1 IC50” value was 0.0028 µM.
With B4 the “human MASP1 IC50” value was 0.0028 µM.
B5 was tested, and the “human MASP1 IC50” value was 0.003 µM.
B6 was tested, and the “human MASP1 IC50” value was 0.0029 µM.
With B7 the “human MASP1 IC50” value was 0.0029 µM.
With B8 the “human MASP1 IC50” value was 0.0028 µM.
In the case of B9, the “human MASP1 IC50” value is reported as 0.0029 µM.
B10 was tested, and the “human MASP1 IC50” value was 0.00114 µM.
In the case of B11, the “human MASP1 IC50” value is reported as 0.0028 µM.
With B12 the “human MASP1 IC50” value was 0.0028 µM.
B13 was tested, and the “human MASP1 IC50” value was 0.0028 µM.
